Data set [1] deals with T1, Gal-8 (Homo sapiens, UniProt O00214).
T1 construct: made in house; host or cells: Escherichia coli Rosetta 2(DE3)pLysS
T1 sequence (O00214 1-317): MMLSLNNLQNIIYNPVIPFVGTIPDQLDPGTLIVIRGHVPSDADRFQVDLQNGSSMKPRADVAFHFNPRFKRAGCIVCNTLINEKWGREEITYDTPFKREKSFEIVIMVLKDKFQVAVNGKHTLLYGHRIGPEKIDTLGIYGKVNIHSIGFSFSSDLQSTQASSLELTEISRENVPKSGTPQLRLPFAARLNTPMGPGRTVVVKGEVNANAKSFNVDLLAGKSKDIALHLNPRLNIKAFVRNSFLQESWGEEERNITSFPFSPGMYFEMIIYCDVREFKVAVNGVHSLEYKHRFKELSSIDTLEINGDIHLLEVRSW
As to the kind of experiment: competitive ELISA with immobilized asialofetuin (ASF), Gal-8. Format: binding. The following applies: 1 μM Gal-8, immobilized ASF, DMSO co-solvent. How it is done: (§1) The inhibitory potential of prepared Lac-CS-DDMs toward Gal-1, Gal-3, Gal-8, and Gal-9 was determined using a competitive ELISA assay with immobilized asialofetuin (ASF; a glycoprotein terminated with LacNAc moieties).[41] ASF (0.1 μM in PBS, 50 μL/well) was coated in microtiter plates (Nunc Immuno Sorb, Thermo Fisher Scientific, USA) and incubated overnight. Then, the wells were washed with 3 × 250 μL of PBS buffer containing 0.05% Tween; this washing step followed each incubation step. The wells were then blocked with 2 mg/mL BSA in PBS buffer (250 μL/well) and incubated for 1 h. […] The reaction was stopped by adding 3 M HCl (50 μL per well), accompanied by a color shift to yellow as determined spectrophotometrically by an absorbance microplate reader (Sunrise Tecan Group Ltd., CH). […] A background value, as a mean of the negative control wells containing buffer instead of galectin/ligand, with an absorbance of ca. 0.05–0.075 was subtracted from the measured absorbances. The values of half maximal inhibitory constants (IC50) were calculated from the non-linear regression (dose–response inhibition-variable slope) of the sigmoidal curves using GraphPad Prism 7 (GraphPad Software, USA) from at least three independent experiments with at least two different galectin batches. […]
For orientation: An ELISA detects its analyte on a solid surface through an enzyme-linked reagent.

In data set [2] the target is T2, Gal-9 (Homo sapiens, UniProt O00182, A222P/DEL149-219).
T2 construct: made in house; host or cells: Escherichia coli Rosetta 2(DE3)pLysS
The data set is described as follows: competitive ELISA with immobilized asialofetuin (ASF), Gal-9. Format: binding. The following applies: 1 μM Gal-9, immobilized ASF, DMSO co-solvent. How it is done: as §1

Data set [3] deals with T2, Gal-9. The data set is described as follows: direct binding ELISA of galectin to immobilized ASF, Gal-9.
Data set [4] addresses T1, Gal-8. As to the kind of experiment: direct binding ELISA of galectin to immobilized ASF, Gal-8.
Another data set concerns the target T3, Gal-3 (Homo sapiens, UniProt P17931).
T3 construct: made in house; host or cells: Escherichia coli Rosetta 2(DE3)pLysS
As to the kind of experiment: direct binding ELISA of galectin to immobilized ASF, Gal-3.

The next data set has as its target T4, Gal-1 (Homo sapiens, UniProt P09382, C3S).
T4 construct: made in house; host or cells: Escherichia coli Rosetta 2(DE3)pLysS
The data set is described as follows: direct binding ELISA of galectin to immobilized ASF, Gal-1.

Data set [5] is described as follows: DLS hydrodynamic diameter of single components (galectins, Lac-CS-DDMs). The class given is physicochemical. The following applies: single component 10 μM in PBS, 25 °C. How it is done: The hydrodynamic diameter of the nanoparticles of galectins, Lac-CS-DDMs, and their aggregates was measured by dynamic light scattering (DLS) using a Zetasizer Nano ZS (Malvern Instruments Ltd., UK) at 25 °C in Malvern disposable plastic microcuvettes (100 μL sample volume). The light scattered at 173° from the incident light was fitted to an autocorrelation function using the method of cumulants (Malvern Instruments Ltd., UK). Commercial sterile PBS was used for sample preparation. […] Mixtures of components were incubated for 90 min at room temperature. The samples were vortexed prior to measurements. The hydrodynamic diameters were determined from five independent repetitions (each 10–50 runs). Multimodal intensity-weighted particle size distribution was used for data analysis.
DLS experiments on the A series of Lac-CS-DDMs and G3-B-AcLac32 were performed to provide insight into the complexity of multivalent galectin/Lac-CS-DDM interactions (Table 2). Unlike ELISA assays that simulate competitive binding on the cell surface, DLS is a straightforward method to evaluate non-surface bound multivalent assemblies.[71] Thus, it is interesting to relate the data obtained by these two methods. Since the transformation of intensity-weighted size distribution to volume-weighted size distribution requires information on the refractive index and absorption of the formed particles and assumes their homogeneity and spherical shape,[72] all presented data come from the analysis of the multimodal intensity-weighted size distribution. As the scattering intensity correlates with the particle diameter to the sixth power, whereas the mass only to the third power, the abundance of larger particles is overestimated at the expense of the smaller ones with respect to the real sample composition, especially in the case of polydisperse samples with multiple size populations.[73] This means that, due to the presence of large aggregates, the particles smaller by orders of magnitude present in the sample may not be detected. Despite the above bottlenecks, we believe that using the size-to-intensity plot is the most appropriate as it is highly sensitive to a starting aggregation, which may be undetectable in the size-to-volume distribution, and it is well suited to compare results between different galectins and Lac-CS-DDM generations to address general differences and trends in their aggregation behavior.

The target in data set [6] is asialofetuin (ASF; a glycoprotein terminated with LacNAc moieties) (UniProt P12763). The data set is described as follows: ELISA; direct binding: ASF (0.1 μM in PBS) coated on the plate, serial dilution of the galectin in EPBS (2 mM EDTA in PBS), bound galectin detected with anti-His antibody-HRP.
In data set [7] the target is T5, asialofetuin (ASF; a glycoprotein terminated with LacNAc moieties) (UniProt P12763 19-359, glycoprotein terminated with LacNAc moieties (desialylated glycans)).
T5 construct: asialofetuin, the desialylated form of fetuin
T5 sequence (looked up): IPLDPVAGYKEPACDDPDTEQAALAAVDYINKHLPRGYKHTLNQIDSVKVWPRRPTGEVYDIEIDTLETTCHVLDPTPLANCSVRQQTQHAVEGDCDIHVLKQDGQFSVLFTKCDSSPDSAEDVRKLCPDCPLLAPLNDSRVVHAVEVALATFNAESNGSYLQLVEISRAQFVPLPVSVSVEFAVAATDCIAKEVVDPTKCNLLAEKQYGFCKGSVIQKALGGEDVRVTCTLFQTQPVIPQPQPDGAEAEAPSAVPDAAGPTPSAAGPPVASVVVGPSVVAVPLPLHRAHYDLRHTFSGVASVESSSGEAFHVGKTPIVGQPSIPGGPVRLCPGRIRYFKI
Described as above. The following applies: both partners purified.

One may read the IC50 as the point on the concentration scale where inhibition reaches its midpoint. The low end stands for higher potency, the high end for lower potency. Usually Kd stands for the equilibrium constant for the complex coming apart. A higher Kd goes with a looser complex.

T2 sequence (O00182 with tags, fused parts or gaps DEL149-219/A222P): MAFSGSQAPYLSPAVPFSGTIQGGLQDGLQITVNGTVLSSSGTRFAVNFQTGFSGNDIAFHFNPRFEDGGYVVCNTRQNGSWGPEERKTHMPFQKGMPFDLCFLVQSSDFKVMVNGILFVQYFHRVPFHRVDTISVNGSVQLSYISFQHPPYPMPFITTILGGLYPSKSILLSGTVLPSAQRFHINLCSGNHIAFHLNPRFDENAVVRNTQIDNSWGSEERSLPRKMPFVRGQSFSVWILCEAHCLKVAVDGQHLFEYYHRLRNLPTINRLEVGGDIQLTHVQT
T4 sequence (P09382 whole entry C3S): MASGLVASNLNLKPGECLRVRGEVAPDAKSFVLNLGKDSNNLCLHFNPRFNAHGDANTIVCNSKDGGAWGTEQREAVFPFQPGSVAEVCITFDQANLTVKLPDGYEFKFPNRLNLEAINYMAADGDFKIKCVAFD
T3 sequence (P17931 whole entry): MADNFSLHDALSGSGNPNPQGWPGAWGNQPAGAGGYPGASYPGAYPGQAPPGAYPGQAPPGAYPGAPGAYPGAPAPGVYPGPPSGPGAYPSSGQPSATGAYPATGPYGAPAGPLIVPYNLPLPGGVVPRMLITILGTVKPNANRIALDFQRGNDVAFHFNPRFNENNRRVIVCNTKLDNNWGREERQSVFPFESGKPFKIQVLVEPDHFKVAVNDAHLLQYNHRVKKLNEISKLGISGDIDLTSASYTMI

Take `OC[C@H]1O[C@@H](O[C@H]2[C@H](O)[C@@H](O)C(O)O[C@@H]2CO)[C@H](O)[C@@H](O)[C@H]1O` (mixture of isomers) [lactose]: the IC50 on Gal-8 [1] was found to be 1680 ± 420 µM; at Gal-9 [2] it was 1350 ± 440 µM.

“ASF: asialofetuin, a glycoprotein terminated with LacNAc moieties, immobilized competitor in ELISA”: the Kd in the data set with Gal-9 [3] amounted to 0.3 µM; in the data set with Gal-8 [4], 0.37 µM; with Gal-3 it was 3.2 µM; with Gal-1, 4.4 µM.

In the case of “Gal-1: recombinant human galectin-1, N-terminal His-tagged, C2S mutation”, in data set [5], the “PI (polydispersity index)” value was found to be 0.4; the “hydrodynamic diameter, aggregates >0.5 μm” value came out at 1.2 ± 0.5 μm; the “hydrodynamic diameter, small particles <50 nm (first fraction)” value (“hydrodynamic diameter … (first fraction)” for short) is on record as 1.3 ± 0.1 nm; the “hydrodynamic diameter, small particles <50 nm (second fraction)” value is 19.0 ± 6.0 nm. Also, in data set [5], the “intensity-weighted abundance, aggregates >0.5 μm” value came to 32%; the “intensity-weighted abundance, small particles <50 nm (first fraction)” value (“intensity-weighted abundance … (first fraction)” for short) is 47%; the “intensity-weighted abundance, small particles <50 nm (second fraction)” value stood at 21%.

For “Gal-3: recombinant human galectin-3, N-terminal His-tagged”, in data set [5], the “PI (polydispersity index)” value was determined as 0.6; the “hydrodynamic diameter, aggregates >0.1 μm” value was 0.4 ± 0.1 μm; the “hydrodynamic diameter, aggregates >0.5 μm” value is recorded as 1.1 ± 0.1 μm; the “hydrodynamic diameter … (first fraction)” value is 7.9 ± 1.4 nm. Further, in data set [5], the “intensity-weighted abundance, aggregates >0.1 μm” value turned out to be 40%; the “intensity-weighted abundance, aggregates >0.5 μm” value came to 13%; the “intensity-weighted abundance … (first fraction)” value stood at 36%.

For “Gal-8: recombinant human galectin-8, N-terminal His-tagged, full-length peptide linker of 34 aa”, in data set [5], the “PI (polydispersity index)” value was 0.7; the “hydrodynamic diameter, aggregates >0.5 μm” value is given as 1.4 ± 0.3 μm; the “hydrodynamic diameter … (first fraction)” value is given as 5.4 ± 0.5 nm; the “intensity-weighted abundance, aggregates >0.5 μm” value is 80%. In addition, the “intensity-weighted abundance … (first fraction)” value in data set [5] is reported as 20%.

In turn, “Recombinant human galectin-1 (Gal-1) with mutation C2S, N-terminal His-tagged (natural protein)” had an equilibrium dissociation constant (Kd) in [6] of 4.4 µM.

As to “Recombinant human galectin-9 (Gal-9) with a truncated mutated peptide linker HPPYPMPF, N-terminal His-tagged (natural protein)”, in data set [6], the Kd was 0.3 µM.

B1: Recombinant human galectin-8 (Gal-8) with a full-length peptide linker of 34 aa, N-terminal His-tagged (natural protein, UniProt O00214 1-317, looked up)
chain: T1 sequence (O00214 1-317)
notes: galectin-8 (tandem repeat), human; contains a full-length peptide linker of 34 aa (3717 Da); ca. 36 kDa; cloned in pET-Duet1 (AscI/NotI); plasmid a gift from Prof; L. Elling; source: E. coli Rosetta 2(DE3)pLysS, purified (Ni-NTA); not shown: His tag, N-terminal, kept
As to B1, the Kd in [7] was 0.37 µM.

Source of the values: publication PMC10646984 (Biomacromolecules, 2023).
